According to PMC12905440:

Assays:
Ago1 (RISC) [1] = target: Ago1 (RISC) (UniProt A1Z9J5); experiment: RBNS; conditions: RBNS: 20 mM HEPES-KOH pH 7.9, 100 mM KOAc, 3.5 mM Mg(OAc)2, 0.05% CHAPS, 2 mM DTT, 8% glycerol, BSA, tRNA, 25 C, 2 h, filter binding: 25 mM HEPES-KOH pH 7.9 …
PUM2 (Homo sapiens) = target: T1, PUM2 (Homo sapiens) (UniProt Q8TB72); experiment: RBNS; conditions: re-analysis of published RBNS data (ref 38); RBNS: 20 mM HEPES-KOH pH 7.9, 100 mM KOAc, 3.5 mM Mg(OAc)2, 0.05% CHAPS, 2 mM DTT, 8% glycerol, BSA, tRNA, 25 C, 2 h; filter binding: 25 mM HEPES-KOH pH 7.9 …
T1 sequence: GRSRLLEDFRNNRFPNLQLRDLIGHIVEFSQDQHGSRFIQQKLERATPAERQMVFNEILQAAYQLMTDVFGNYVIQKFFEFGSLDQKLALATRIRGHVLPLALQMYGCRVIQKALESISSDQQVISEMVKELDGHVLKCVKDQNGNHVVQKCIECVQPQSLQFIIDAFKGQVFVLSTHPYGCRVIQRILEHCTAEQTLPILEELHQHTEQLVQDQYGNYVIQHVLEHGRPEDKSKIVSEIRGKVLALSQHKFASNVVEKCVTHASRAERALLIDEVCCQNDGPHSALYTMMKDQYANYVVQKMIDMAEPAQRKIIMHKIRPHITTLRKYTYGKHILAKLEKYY

Ago1 (RISC) [2] = target: Ago1 (RISC) (UniProt A1Z9J5); experiment: double-filter binding; conditions: let-7 guide, RBNS: 20 mM HEPES-KOH pH 7.9, 100 mM KOAc, 3.5 mM Mg(OAc)2, 0.05% CHAPS, 2 mM DTT, 8% glycerol, BSA, tRNA, 25 C, 2 h, filter binding: 25 mM HEPES-KOH pH 7.9 …

Ago1 (RISC), sequence (A1Z9J5 entry or part of it): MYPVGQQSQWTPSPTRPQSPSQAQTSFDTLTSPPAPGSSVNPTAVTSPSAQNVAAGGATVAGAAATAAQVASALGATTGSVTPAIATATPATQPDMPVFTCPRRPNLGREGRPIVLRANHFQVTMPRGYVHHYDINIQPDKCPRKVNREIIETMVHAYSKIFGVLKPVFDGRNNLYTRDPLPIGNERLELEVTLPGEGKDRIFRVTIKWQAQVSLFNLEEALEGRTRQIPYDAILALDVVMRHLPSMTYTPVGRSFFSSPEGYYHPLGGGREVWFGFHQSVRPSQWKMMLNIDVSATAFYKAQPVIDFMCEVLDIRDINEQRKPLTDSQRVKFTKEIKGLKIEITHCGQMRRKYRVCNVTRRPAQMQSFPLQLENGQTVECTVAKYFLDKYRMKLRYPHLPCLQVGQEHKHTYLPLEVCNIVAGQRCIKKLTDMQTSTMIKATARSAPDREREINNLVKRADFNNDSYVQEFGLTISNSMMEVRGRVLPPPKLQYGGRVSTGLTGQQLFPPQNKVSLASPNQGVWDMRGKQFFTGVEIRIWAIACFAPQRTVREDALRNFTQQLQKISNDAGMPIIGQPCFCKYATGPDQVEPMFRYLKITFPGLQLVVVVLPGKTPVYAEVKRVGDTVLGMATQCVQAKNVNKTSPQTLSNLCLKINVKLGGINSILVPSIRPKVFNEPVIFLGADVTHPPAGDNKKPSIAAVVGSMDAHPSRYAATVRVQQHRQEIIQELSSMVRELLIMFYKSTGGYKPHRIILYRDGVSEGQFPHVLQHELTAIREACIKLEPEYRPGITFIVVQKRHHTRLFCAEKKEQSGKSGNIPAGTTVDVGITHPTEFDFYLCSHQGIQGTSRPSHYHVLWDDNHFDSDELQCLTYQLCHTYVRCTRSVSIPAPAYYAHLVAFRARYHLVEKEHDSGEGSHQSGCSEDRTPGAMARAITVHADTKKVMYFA

## CUACCUUB / UGAGGUAGUAGGUUGUAUAGU [let-7 / 7mer-m8,w2]
Ago1 (RISC) [1]; let-7 guide
  Kd: 0.278 nM

## UCCGUCUB / UGGACGGAGAACUGAUAAGGGC [miR-184 / 7mer-m8,w2]
Ago1 (RISC) [1]; miR-184 guide
  Kd: 0.154 nM

## UGAUCUUB / UGAGAUCAUUUUGAAAGCUGAUU [bantam / 7mer-m8,w2]
Ago1 (RISC) [1]; bantam guide
  Kd: 0.866 nM

## UGUAUAUA [PUM consensus site]
PUM2 (Homo sapiens)
  Kd: 0.12 nM

## let-7 guide / fully complementary target (Fig 1c)
Ago1 (RISC) [2]
  Kd: 0.002 nM

## let-7 guide / seed-matching target (Fig 1c)
Ago1 (RISC) [2]; 5' 32P target
  Kd: 0.005 nM
